In data set [1] the target is T1, IL-17 (human IL-17) (Homo sapiens, UniProt Q16552 Q16552:24-155).
T1 sequence: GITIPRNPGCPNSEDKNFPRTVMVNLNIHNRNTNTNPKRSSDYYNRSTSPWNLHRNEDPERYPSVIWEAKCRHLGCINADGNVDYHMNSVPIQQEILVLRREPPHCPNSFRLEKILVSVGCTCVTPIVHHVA
The data set can be described thus: cell_activity; inhibition of IL-17 (10 ng/mL) + mouse TNF induced IL-6 in NIH3T3 cells, 37 C preincubation 30 min. Particulars: chain copies: 2 inferred (homodimer). The method, then:
(§1) Human IL-17 (10 ng/mL) and aptamers diluted to various concentrations were pre-incubated at 37° C. for 30 min, and added to NIH3T3 cells (ATCC, CRL1658, 1.25×10⁵ cell/mL) together with mouse TNF (2 ng/mL). Then, after incubation for 24 hr, the culture supernatant was collected. After preservation at −70° C., the amount of produced IL-6 was measured by the ELISA method. The IL-17 inhibitory action of each aptamer was evaluated from the amount of produced IL-6.
A microtiter plate for ELISA was coated with rat anti-mouse IL-6 antibody (BD Biosciences, 2 μg/mL; 100 μL/well) diluted with PBS, and incubated at 4° C. overnight. The next day, the microtiter plate was washed 3 times with PBS/0.05% Tween 20, and blocked with PBS/1% BSA (200 μL/well) at room temperature for 2 hr. Then, the plate was washed 3 times with PBS/0.05% Tween 20. Recombinant mouse IL-6 (BD Biosciences; 100 μL/well) serially diluted with PBS/1% BSA/0.05% Tween 20 or culture supernatants (100 μL/well) were added to the plate. After incubation at room temperature for 2 hr, the plate was washed 3 times with PBS/0.05% Tween 20. Then, 100 μL/well of biotin conjugated rat anti-mouse IL-6 antibody (BD Biosciences) was added at final dilution of 1/500, and the mixture was reacted at room temperature for 1 hr. After washing 3 times with PBS/0.05% Tween 20, 100 μL/well of alkaline phosphatase conjugated streptavidin was added at final dilution of 1/1000. After 30 min at room temperature, the plate was again washed 4 times with PBS/0.05% Tween 20, and a substrate (1-Step PNPP; Thermo Fisher Scientific Inc; 100 μL/well) was added. After 15 min, aqueous sodium hydroxide solution (2N: 50 μL/well) was added to stop the reaction, and the plate was read on a microtiter reader (Bio-Rad) by using a 405 nm filter.

The target of data set [2] is T1, IL-17 (human IL-17). The data set can be described thus: cell_activity; nucleic acid alone; IL-6 release from NIH3T3 cells. Particulars: chain copies: 2 inferred (homodimer). The procedure: Aptamers in which a brancher, a spacer, an ssH amino linker were added to the nucleic acid sequences of Example sequences 1, 2, 3 and 4, and 40 kDa 2 branched PEG was added (total PEG molecular weight: 80 kDa each) were synthesized (FIG. 1 structure 1). The IL-17 neutralization activity of each aptamer was measured along with the aptamer having the original nucleic acid sequence alone. The evaluation was based on the measurement of the amount of IL-6 released in the cultured cells by the stimulation of IL-17 and TNFα to the cells.
as §1
A microtiter plate for ELISA was coated with rat anti-mouse IL-6 antibody (BD Biosciences, 2 μg/mL; 100 μL/well) diluted with PBS, and incubated at 4° C. overnight. The next day, the microtiter plate was washed 3 times with PBS/0.05% Tween 20, and blocked with PBS/1% BSA (200 μL/well) at room temperature for 2 hr. Then, the plate was washed 3 times with PBS/0.05% Tween 20. […]

B1: Example sequence 1 (aptamer No. 8) PEG-linker-spacer-brancher (mixed)
mixed: GGGUAGCCGGAGGAGTCAGTAAUCGGUACCC
modifications: 2'-OMe at 1-4,7,8,10,13,14,23-26,28; 2'-F at 11,17,18,27; PS at g6; DNA at A5,G9,T16,T20,C29-C31; rest 2'-OH RNA; 3' idT (stated for in vivo tests); 5' symmetrical brancher with spacer + ssH amino linker + 2 x 40 kDa branched PEG (80 kDa total)
For the molecule B1, in the data set with IL-17 (human IL-17) [1], the IC50 amounted to 0.041 nM.

B2: Example sequence 1 (aptamer No. 8) nucleic acid alone (mixed)
mixed: B1 mixed
modifications: 2'-OMe at 1-4,7,8,10,13,14,23-26,28; 2'-F at 11,17,18,27; PS at g6; DNA at A5,G9,T16,T20,C29-C31; rest 2'-OH RNA; no PEG
In the data set with IL-17 (human IL-17) [2], B2 registered an IC50 of 0.223 nM.

B3: Example sequence 4 (aptamer No. 93) PEG-linker-spacer-brancher (mixed)
mixed: B1 mixed
modifications: 2'-OMe at 1-4,7,8,10,13,14,23-26,28-31; 2'-F at 11,17,18,27; PS at g6; DNA at A5,G9,T16,T20; rest 2'-OH RNA; 3' idT (stated for in vivo tests); 5' symmetrical brancher with spacer + ssH amino linker + 2 x 40 kDa branched PEG (80 kDa total)
In the case of B3, the IC50 with IL-17 (human IL-17) [1] amounted to 0.06 nM.

B4: Example sequence 4 (aptamer No. 93) nucleic acid alone (mixed)
mixed: B1 mixed
modifications: 2'-OMe at 1-4,7,8,10,13,14,23-26,28-31; 2'-F at 11,17,18,27; PS at g6; DNA at A5,G9,T16,T20; rest 2'-OH RNA; no PEG
B4: in the data set with IL-17 (human IL-17) [2], the IC50 amounted to 0.123 nM.

B5: Example sequence 2 (aptamer No. 48) PEG-linker-spacer-brancher (mixed)
mixed: B1 mixed
modifications: 2'-OMe at 1-4,7,8,10,13,14,23-26,28; 2'-F at 17,27; DNA at A5,G9,T16,T20,C29-C31; rest 2'-OH RNA; 3' idT (stated for in vivo tests); 5' symmetrical brancher with spacer + ssH amino linker + 2 x 40 kDa branched PEG (80 kDa total)
B5: in the data set with IL-17 (human IL-17) [1], the IC50 came out at 0.18 nM.

One may read the IC50 as the concentration that inhibits the measured activity by half.

Values taken from US20190381088, “ANTI-IL-17 APTAMER HAVING IMPROVED RETENTION IN BLOOD” (ZENYAKU KOGYO CO., LTD., published 2019).
